Source: patent US20140370024A1 (IMPERIAL INNOVATIONS, published 2014)

Molecular target: T1, gC1qR, the receptor of the globular part of the complement protein C1q, from rat brain membrane fractions (rat, UniProt O35796 72-279)
T1 construct: also called ~30 kDa band
T1 sequence (looked up): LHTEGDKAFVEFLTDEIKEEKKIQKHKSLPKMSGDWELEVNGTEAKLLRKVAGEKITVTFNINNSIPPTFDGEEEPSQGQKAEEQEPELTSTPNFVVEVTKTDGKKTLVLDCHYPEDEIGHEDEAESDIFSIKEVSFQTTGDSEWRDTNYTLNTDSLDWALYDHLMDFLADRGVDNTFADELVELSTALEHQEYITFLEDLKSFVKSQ
Test: chemical cross-linking to rat brain membrane fraction, Tricine-PAGE, Western blot with streptavidin-HRP; band identified as gC1q-R by LC-MS/MS
Method: The reaction was terminated using 50 mM Tris buffer, and samples were ethanol precipitated and resolved using Tricine-PAGE and visualised by Western blot analysis by streptavidin-horse radish peroxidase. A clear band at ˜30 kDa (indicated by an arrow) was observed following chemical crosslinking using biotinylated TLQP-21., which was many orders of magnitude greater than the corresponding band in the membrane control lane using unconjugated Sulfo-EMCS cross-linker. b, Membrane fractions of P4 rat brain was applied to either monomeric avidin column attached with TLQP-21 or monomeric avidin column only (“Negative control”). Following considerable washes, proteins bound to the columns were eluted and resolved on SDS-PAGE, followed by silver staining. A ˜30 kDa band (arrow) was apparent in the elutant from the TLQP-21-attached column. C, The ˜30 kDa band was analysed by LC-MS/MS Orbitrap following trypsinisation.
Ccl11 has been linked to inflammation²³, while Cxcl9 is known as a natural antagonist to Ccl11 receptor CCR3²⁴. We then used Sulfo-EMCS-conjugated TLQP-21 to purify and identify receptor(s) for TLQP-21. […] The membrane fractions of rat brain was incubated with the crosslinker-conjugated TLQP-21, and analysed by Tricine-PAGE and Western blotting using Streptavidin-HRP for the biotin tag on TLQP-21.

B1: Sulfo-EMCS cross-linker-conjugated biotinylated TLQP-21 (peptide)
peptide: TLQPPASSRRRHFHHALPPARC
modifications: biotin covalently attached via the amide bond at the N-terminus; Sulfo-EMCS cross-linker conjugated via the sulphydryl group of the extra cysteine at the C-terminus
notes: Used for chemical cross-linking to rat membrane fractions; also called crosslinker-conjugated TLQP-21; Sulfo-EMCS-conjugated TLQP-21
  binding result: binds
